The record followed here is US20220025406.

Common to all, as to test: cell_activity
Series [1] has as its system Sleeping Beauty transposase SB100X. The following applies: excision in HeLa, 3 of 21 clones.
Series [2] concerns phiC31 integrase (Streptomyces phage phiC31?). The following applies: HeLa CI.24.22, 4 of 24 clones positive.
For series [3], the system named is gp3-phiC31 integrase fusion (Streptomyces phage phiC31?). The following applies: HeLa CI.24.22.21.3, attL x attR recombination, 13 of 27 clones.
In series [4] the test system is hyperactive piggyBac transposase (HAhyPBase). The following applies: excision in HeLa (step 1 and step 3 both 17%); 46% in hiPS cells (Table 17).

In series [1], “Sleeping Beauty ITRs flanking puro-delta-tk” gave an activity of 14%.
For phiC31 attB (pEP24) x attP (pEP28), the activity in series [2] amounted to 16%.
Take phiC31 attL (genomic) x attR (pEP50): the activity in series [3] is 48%.
piggyBac ITRs flanking puro-delta-tk gave an activity in series [4] of 17%.
